Key:
Type in all cases: cell-based, rat
Myoblasts = assay: Myoblast fusion and differentiation into myotubes on surfaces adsorbed with different coatings
Description: Myoblasts were isolated and cultured as previously described. Briefly, pregnant Sprague Dawley rats were sacrificed by CO2 inhalation at gestational day 21, and pups were removed by Cesarean section. Hind limb muscles were removed, and tissue was finely minced and digested (20 min at 37° C.) in PBS containing 1.5 U/ml collagenase (type D, Roche, Mannheim, Germany) and 2.5 U/ml dispase (type II, Roche, Mannheim, Germany). Single cells were separated from debris, pelleted by centrifugation, and resuspended in growth medium consisting of Ham's F-10 medium plus 20% fetal bovine serum, 1% Penicillin/Streptomycin, (all from Invitrogen, Carlsbad, Calif.) and 2.5 ng/ml human b-FGF (Promega Corporation, Madison, Wis.). Cells were then plated into 75 cm^2 flasks and incubated for 24 hrs. Adherent cells were resuspended and plated onto PDMS substrates in differentiation medium consisting of Neurobasal medium including 2% B-27 supplement, 1% Penicillin/Streptomycin and 1% GlutaMAX (all from Invitrogen, Carlsbad, Calif.) at a surface density of 200,000 cells/cm^2. Prior to seeding, surfaces were plasma treated (O2 plasma for 120 S at 50 Watts) and adsorbed overnight with 40 μg/ml laminin (Sigma Aldrich, St. Louis, Mo.). Medium changes were performed every other day.

Spinal cord explants = assay: Axonal outgrowth from spinal cord explants with or without Ara-C in the medium; conditions: 1 μm Ara-C added to NB medium, after 13 days in culture, vs standard NB medium
Description: Spinal cord explants are prepared using procedures known in the art. Briefly, pregnant Sprague Dawley rats were sacrificed by CO2 inhalation at gestational day 15, and pups were removed by Cesarean section. Spinal cord was removed posteriorly and transferred to a PDMS-lined petri dish in a drop of medium. The cord is then bisected longitudinally and finely minced transversely into sections 200-300 μm thick. Sections were suspended in NB medium plus 1% GlutaMAX supplement and 2% B27 supplement. Explants were then plated onto chemically or topographically patterned glass substrates or MEAS, all of which had been adsorbed overnight with laminin at 40 μg/ml in 10 μL of medium. Explants can be precisely positioned on the growth substrate during this step. In this experiment, explants were positions with the explant body over three contacts in the top row of the MEA, allowing space for axonal outgrowth over the other contacts. After 5 min, allowing for initial adhesion, enough medium was added to just cover the explant, and it was placed in an incubator at 5% CO2 and 37 deg C. Medium was replaced every 2 days.
Explants were fixed and stained on DIV 13 to identify axonal and dendritic outgrowth. […] Five well-attached explants were imaged in each condition, and their outgrowth was quantified using ImageJ software (NIH, Bethesda Md.). […]

Hippocampal neurons = assay: Morphology and Sholl analysis (Bonfire program) of GFP-transfected hippocampal neurons treated with BDNF; conditions: 25 ng/ml BDNF
Description: Hippocampal neurons were isolated from E18 rat embryos and cultured. Briefly, embryos were removed by Cesarian section at 18 days gestation and decapitated. The hippocampi were manually dissected under a microscope, and cells were triturated with a fire polished glass pipette tip, counted on a hemocytometer, and plated at a density of ˜1800 cells per mm^2 on 35 mm petri plates (Corning) coated with 1 mg/ml poly-D-lysine (Sigma-Aldrich). Cultures were maintained in Neurobasal medium containing penicillin, streptomycin, glutamine, and B27 supplement (NB; all purchased from Invitrogen).
At 5 days in vitro (DIV5), cells were transfected with cDNA encoding GFP using Effectene (Qiagen). The low efficiency of this transfection technique in this cell system allows the easy identification of the processes associated with single neurons. In the BDNF treatment groups, treatment occurred from DIV7-10, during which regular NB was replaced with NB containing 25 ng/ml BDNF. […] Cultures were fixed in 4% paraformaldehyde on DIV10 and immunostained with rat anti-GFP (a gift from Dr. Shu-Chan Hsu, Rutgers University) and MAP-2 (Sigma-Aldrich). Neurons were imaged in the GFP channel at 200× using an Olympus Optical IX50 microscope with a Cooke Sensicam CCD cooled camera, fluorescence imaging system, and ImagePro software (MediaCybernetics). Images were acquired in 8-bit TIFF format, measuring 512×640 pixels.
An embodiment Bonfire program is a series of custom scripts written in, for example, MATLAB (MathWorks), although it will be appreciated that any suitable programming language may be employed. Neuronal morphology was digitized in three stages based on the initial images. In the first stage, the semi-automated tools available through the NeuronJ plugin to ImageJ (NIH, Bethesda Md.) were used to define all neurite positions (FIG. 6(A-B)). The data for each neurite are exported using NeuronJ in the form of a series of nodes with defined positions in the X-Y plane, where nodes belonging to an individual neurite segment are linked by association. These tools allow the user to guide the tracing of each neuritic segment with course resolution by hand but reduce tracing time by using a curve-fitting algorithm to fine-tune the exact location of the nodes defining the neurite position.
In the second stage, portions of the embodiment Bonfire program were used to convert the strings of nodes provided by NeuronJ into SWC format for further manipulation. NeuronStudio is then used to define the pattern of connectivity between neurite segments (FIG. 6(C)). The transformation of the data into SWC format allows for the linkage of the simple strings of nodes defined previously into more complex branching structures. After linking is complete, another component of the embodiment Bonfire program checks the resulting structure for errors and non-linkages (FIG. 6(D)), based on the assumption that each neuritic segment may only give rise to two or less daughter segments. […] These two steps fully determine the structure of each cell's neuritic arbor in 2-dimensional space and encode it in a digital format.
Using these digitized neuritic arbors, a second component of the embodiment Bonfire program was then used to perform process identification and extract the following metrics: number of primary neurites, number of secondary neurites, number of branch points per cell, number of terminal neurite tips per cell, and Sholl analysis performed with a 3.0 μm ring interval (FIG. 6(E)). Sholl analysis is performed conceptually by drawing concentric circles around a cell body at incrementally increasing radii and counting the number of times each circle crosses a neuritic segment. The number of intersections is graphed as a function of radial distance from the cell body to give a quantitative representation of how neurite density varies spatially. […]

[1] = DIV7-10, vs untreated control, data not shown

laminin
myoblast fusion and maturation into striated myotubes (Myoblasts; laminin adsorbed surfaces): robust
myotube differentiation (Myoblasts; surface adsorbed with the substance, data not shown): promoted myotube differentiation

Nc1ccn([C@@H]2O[C@H](CO)[C@@H](O)[C@@H]2O)c(=O)n1 [Ara-C]
axonal outgrowth length (maximum axonal extension from explant body) (Spinal cord explants): did not appreciably reduce

B1: BDNF: a well-studied extracellular factor that regulates neurite morphology (protein, UniProt P23560 19-247, looked up)
Neurotrophic factor BDNF …: APMKEANIRGQGGLAYPGVRTHGTLESVNGPKAGSRGLTSLADTFEHVIEELLDEDQKVRPNEENNKDADLYTSRVMLSSQVPLEPPLLFLLEEYKNYLDAANMSMRVRRHSDPARRGELSVCDSISEWVTAADKKTAVDMSGGTVTVLEKVPVSKGQLKQYFYETKCNPMGYTKEGCRGIDKRHWNSQCRTTQSYVRALTMDSKKRIGWRFIRIDTSCVCTLTIKRGR
average number of branch points per cell (Hippocampal neurons; DIV7-10, vs untreated control): no change between conditions
distal neurites (total Sholl curve) (Hippocampal neurons; DIV7-10, vs untreated control): no effect on distal neurites
number of primary neurites (primary extensions) per cell (Hippocampal neurons; DIV7-10, vs untreated control): statistically significant increase
number of secondary neurites per cell (Hippocampal neurons; DIV7-10, vs untreated control): does not reach statistical significance
number of terminal branches per cell (Hippocampal neurons; DIV7-10, vs untreated control): no change between conditions
average process length (Hippocampal neurons; [1]): no significant change
total arbor length (Hippocampal neurons; [1]): no significant change
proximal neurites within the first 35 μm of the soma (total Sholl curve) (Hippocampal neurons; DIV7-10, vs untreated control, global exposure in vitro): increases proximal neurites
number of Sholl intersections with terminal neurites (Hippocampal neurons; DIV7-10, RIT labeling scheme Sholl analysis): increase
number of Sholl intersections with primary neurites (Hippocampal neurons; DIV7-10, segment identity-specific Sholl analysis): increase

From US8615311B2, “Microelectorode array, methods for preparing the same and uses thereof” (Rutgers, The State University of New Jersey, priority 2010, dated 2013)
